B1: REST corepressor 3, residues 87 to 134; numbered along this chain, Q9P2K3 (parent)
chain: DEWTVEDKVLFEQAFSFHGKSFHRIQQMLPDKTIASLVKYYYSWKKTR

Variants of: B1
Assay: abundance fitness (aPCA) (normalised: wild type 0, dead -1); higher = more abundant; growth selection in yeast, the domain comes from the species named
Settings: Homo sapiens

Abundance fitness, by site and new letter:
Q26: W -0.82, S -0.79, Y -0.428, K 0.249, V -0.692, R -0.232, C -0.172, G -0.757, M -0.438, F -0.595, L -0.648
F17: H -0.207, S 0.262, G -0.793, P -0.537, K 0.207, L -0.206, T 0.36, Q -0.654, N -0.208, D 0.259, M -0.553, Y -0.592, E 0.376, C -0.853, I -0.055, R 0.137, W -0.61, A -0.307
K32: Q -0.888, V -0.93, E -0.836, H -0.45, F -0.814, T -0.819, M -0.799, N -0.776, I -0.978, S -0.972, G -0.89, Y -0.885, R -0.473, L -0.673, W -0.945, D -0.903, C -0.816, A -0.854, P -0.742
A35: C -0.401, F -0.098, G 0.045, D -0.391, H -0.214, I -0.062, E 0.308
K20: C -0.337, S -0.393, V -0.737, A -0.343, L -0.665, W -0.551, N -0.306, E -0.353, P -0.704, T -0.399, G -0.278, M 0.033, R -0.544
M28: F -0.502, Q -0.429, R -0.618, P -0.733, S -0.517, A -0.382, H -0.364, G -0.806, E -0.616, T -0.461, K -0.686, L -0.558, Y -0.635, W -0.589
A14: E -0.811, R -0.635, S -0.993, I -0.655, F -0.453, C -0.71, W -0.664, K -0.393, T -0.609, L -0.392, Y -0.578, G -0.73
I34: M -0.255, K -0.67, T -0.644, R -0.374, V -0.747, Y -0.508, A -0.845, G -0.767, P -1.08, E -0.455, L -0.419, N -0.267, S -0.677, C -0.869, F -0.036, Q -0.768, D -0.437, H -0.73
G19: D -0.487, S -0.487, V -0.805
K8: T -0.542, V -0.625, R -0.434, S -0.822
R24: S -0.465, G -0.74, V -0.508
H18: Y -0.05, I 0.283, Q -0.895, L -0.731, N -0.785, W -0.894, T -0.39, S -0.706, G -0.764, V -0.974
D31: G 0.029, V -0.517, I -0.733, T -0.316, K -0.136, S 0.225, W -0.539, Y -0.027, L -0.314, R -0.253, E 0.026, H -0.295, P -0.621, A -0.429, C -0.45, N -0.337
L29: C -0.795, F -0.302, I -0.315, Q -0.692, K -0.645, W -0.932, A -0.832, G -0.794, R -0.771
S16: L -0.257, C -0.607, R -0.014, M -0.167, Y -0.391, K -0.22, W -0.568, D 0.149, V -0.393, P -0.579, T -0.427, E 0.339, I -0.554, A -0.077, G -0.081, Q -0.084
E12: D -0.07, R -1.01, G -0.708, S -0.822, L -0.476, A -0.582, Q -0.528, V -0.801, I -0.24, K -0.643, T -0.252
P30: K -0.177, S -0.851, G -0.957, H -0.498, A -0.811, W 0.322, L -0.928, M -0.891, V -0.726, E -0.563, Q -0.716, F -0.182
F11: L -1.14, C -0.265, S -0.736, A -0.715, D -0.873, V -0.812, P -0.834, E -0.769, G -0.768
S21: V -0.323, H -0.185, R 0.233, G -1.12, E 0.261, W -0.107, M -0.344, Q 0.303, A 0.221, L -0.63, N 0.349, D 1.11, C 0.164
T33: W -0.693, K -0.109, A -0.55, N -0.508, C -0.805, V -0.776, L -0.686, Q -0.658, Y -0.708, R -0.688, S -0.385, E -0.647, H -0.781, P 0.275, G -0.265, D -0.354
Q13: R -0.46, E -0.288, K -0.458, H -0.234, C -1.02, F -0.614, S -0.584, D -0.644, W -0.742, I -0.56, L -0.679, A -0.389, G -0.948, M -0.101
L10: K 0.546, I -0.117, T -0.723, A -0.317, M 0.745, V -0.051, S -0.763, R -0.213
Q27: T -0.406, M 0.449, D -0.62, A 0.069, G -0.673, R -0.244, V 0.395, L -0.326, S -0.482, I -0.924, K -0.419, C -0.752
F22: L -0.693, W 0.52, V -0.809, K -0.551, M -0.55, S -0.897, A -0.692, G -0.739, Y -0.424, R -1.07
H23: K 0.381, G -0.642, R -0.407, D -0.517, Q -0.258, V -0.3, N -0.124, E -0.07, Y -0.702, C -0.649, P -0.331, W -0.56, A -0.164, S -0.092
V9: T -0.024, M -0.592, G -0.17, E -0.302, F -0.531, L -0.28, R -0.167, K -0.201, P -0.828, D -0.258, A -0.216, W -0.18, N 0.166, Y -0.581, H -0.237, S -0.143, I 0.032
I25: V -0.74, G -0.903, F -0.838, Y -0.522, L -0.358, M -0.708, A -0.567, H -0.692, P -0.568, K -0.54, D -0.531, T -0.713, R -0.975, S -0.945, E -0.693
F15: T -0.604, K -0.585, C 0.29, W -0.637, R -0.675, L -0.658, G -0.731, P -0.881, S -0.632, V -0.392

Reference: the Human Domainome abundance scans (Beltran et al. 2025)
